The results in this text go back to patent publication US20250352667A1.

The target in test [1] is KEAP1 (wild-type full-length), His-tagged (human) (UniProt Q14145). Description: AlphaScreen; 76.8 nM FLAG-NRF2, 150 nM His-KEAP1; Rep 1; control for I86V. (In general: Bead proximity is the source of the signal in Alpha formats.)
The target is the same in test [2]. Description: AlphaScreen; 1228.8 nM FLAG-NRF2, 150 nM His-KEAP1; Rep 1; control for I86V.
The target is the same in test [3]. Description: AlphaScreen; FLAG-NRF2 wt isoform 1 19.2 nM, His-KEAP1 150 nM; Rep 2; positive control for I86V.
Test [4] shares this target. In words: AlphaScreen; 2.4 nM FLAG-NRF2, 150 nM His-KEAP1; Rep 1; control for I86V.
Test [5] has the same target. Description: AlphaScreen; FLAG-NRF2 wt isoform 1 614.4 nM, His-KEAP1 150 nM; Rep 2; positive control for Q75R.
Test [6] has the same target. In words: AlphaScreen; FLAG-NRF2 wt isoform 1 19.2 nM, His-KEAP1 150 nM; Repeat 2; positive control for Q75R.
Test [7] has the same target. Description: AlphaScreen; 307.2 nM FLAG-NRF2, 150 nM His-KEAP1; Rep 2; control for I86V.
For test [8] the target is unchanged. In words: AlphaScreen; FLAG-NRF2 I86V 614.4 nM, His-KEAP1 150 nM; Rep 1.
Test [9] has the same target. Description: AlphaScreen; standard deviation of three conditions; against wild-type NRF2 isoform 1.
Test [10] has the same target. Description: AlphaScreen; over 9.6, 19.2 and 38.4 nM NRF2; 150 nM His-KEAP1.

Chain of KEAP1 (wild-type full-length), His-tagged (human) (Q14145 2-624 limits assumed): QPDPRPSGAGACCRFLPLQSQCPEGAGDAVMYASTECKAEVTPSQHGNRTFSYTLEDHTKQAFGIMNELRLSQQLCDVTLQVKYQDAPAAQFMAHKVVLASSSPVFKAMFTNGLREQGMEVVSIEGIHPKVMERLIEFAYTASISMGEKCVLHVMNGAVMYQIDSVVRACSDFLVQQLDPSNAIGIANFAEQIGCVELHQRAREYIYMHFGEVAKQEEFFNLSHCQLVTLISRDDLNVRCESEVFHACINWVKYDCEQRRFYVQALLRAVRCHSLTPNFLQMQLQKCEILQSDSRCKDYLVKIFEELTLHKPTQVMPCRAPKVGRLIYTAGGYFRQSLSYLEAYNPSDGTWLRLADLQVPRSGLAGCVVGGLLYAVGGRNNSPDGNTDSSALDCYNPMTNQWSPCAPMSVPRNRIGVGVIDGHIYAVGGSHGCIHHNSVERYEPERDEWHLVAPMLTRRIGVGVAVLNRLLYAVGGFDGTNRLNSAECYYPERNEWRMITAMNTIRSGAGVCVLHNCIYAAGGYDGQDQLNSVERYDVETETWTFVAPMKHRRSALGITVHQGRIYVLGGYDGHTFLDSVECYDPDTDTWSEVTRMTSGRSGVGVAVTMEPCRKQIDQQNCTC

B1: NRF2 isoform 1 (wild-type full-length), FLAG-tagged (protein)
chain: MMDLELPPPGLPSQQDMDLIDILWRQDIDLGVSREVFDFSQRRKEYELEKQKKLEKERQEQLQKEQEKAFFAQLQLDEETGEFLPIQPAQHIQSETSGSANYSQVAHIPKSDALYFDDCMQLLAQTFPFVDDNEVSSATFQSLVPDIPGHIESPVFIATNQAQSPETSVAQVAPVDLDGMQQDIEQVWEELLSIPELQCLNIENDKLVETTMVPSPEAKLTEVDNYHFYSSIPSMEKEVGNCSPHFLNAFEDSFSSILSTEDPNQLTVNSLNSDATVNTDFGDEFYSAFIAEPSISNSMPSPATLSHSLSELLNGPIDVSDLSLCKAFNQNHPESTAEFNDSDSGISLNTSPSVASPEHSVESSSYGDTLLGLSDSEVEELDSAPGSVKQNGPKTPVHSSGDMVQPLSPSQGQSTHVHDAQCENTPEKELPVSPGHRKTPFTKDKHSSRLEAHLTRDELRAKALHIPFPVEKIINLPVVDFNEMMSKEQFNEAQLALIRDIRRRGKNKVAAQNCRKRKLENIVELEQDLDHLKDEKEKLLKEKGENDKSLHLLKKQLSTLYLEVFSMLRDEDGKPYSPSEYSLQQTRDGNVFLVPKSKKPDVKKN
B1: the A-counts in test [1] came to 3020 A-counts; in test [2], 2930 A-counts; in test [4], 860 A-counts; in test [7] it was 2790 A-counts. The results for the A-counts (NRF2 plus KEAP1) in test [3], in [5] and in test [6] were 3270 A-counts, 1710 A-counts and 1480 A-counts, respectively.

B2: NRF2 isoform 1 (I86V full-length), FLAG-tagged (protein)
chain: MMDLELPPPGLPSQQDMDLIDILWRQDIDLGVSREVFDFSQRRKEYELEKQKKLEKERQEQLQKEQEKAFFAQLQLDEETGEFLPVQPAQHIQSETSGSANYSQVAHIPKSDALYFDDCMQLLAQTFPFVDDNEVSSATFQSLVPDIPGHIESPVFIATNQAQSPETSVAQVAPVDLDGMQQDIEQVWEELLSIPELQCLNIENDKLVETTMVPSPEAKLTEVDNYHFYSSIPSMEKEVGNCSPHFLNAFEDSFSSILSTEDPNQLTVNSLNSDATVNTDFGDEFYSAFIAEPSISNSMPSPATLSHSLSELLNGPIDVSDLSLCKAFNQNHPESTAEFNDSDSGISLNTSPSVASPEHSVESSSYGDTLLGLSDSEVEELDSAPGSVKQNGPKTPVHSSGDMVQPLSPSQGQSTHVHDAQCENTPEKELPVSPGHRKTPFTKDKHSSRLEAHLTRDELRAKALHIPFPVEKIINLPVVDFNEMMSKEQFNEAQLALIRDIRRRGKNKVAAQNCRKRKLENIVELEQDLDHLKDEKEKLLKEKGENDKSLHLLKKQLSTLYLEVFSMLRDEDGKPYSPSEYSLQQTRDGNVFLVPKSKKPDVKKN
Turning to B2, the A-counts (NRF2 plus KEAP1) in test [8] is 2000 A-counts.

B3: NRF2 isoform 1 (I28V full-length), FLAG-tagged (protein)
chain: MMDLELPPPGLPSQQDMDLIDILWRQDVDLGVSREVFDFSQRRKEYELEKQKKLEKERQEQLQKEQEKAFFAQLQLDEETGEFLPIQPAQHIQSETSGSANYSQVAHIPKSDALYFDDCMQLLAQTFPFVDDNEVSSATFQSLVPDIPGHIESPVFIATNQAQSPETSVAQVAPVDLDGMQQDIEQVWEELLSIPELQCLNIENDKLVETTMVPSPEAKLTEVDNYHFYSSIPSMEKEVGNCSPHFLNAFEDSFSSILSTEDPNQLTVNSLNSDATVNTDFGDEFYSAFIAEPSISNSMPSPATLSHSLSELLNGPIDVSDLSLCKAFNQNHPESTAEFNDSDSGISLNTSPSVASPEHSVESSSYGDTLLGLSDSEVEELDSAPGSVKQNGPKTPVHSSGDMVQPLSPSQGQSTHVHDAQCENTPEKELPVSPGHRKTPFTKDKHSSRLEAHLTRDELRAKALHIPFPVEKIINLPVVDFNEMMSKEQFNEAQLALIRDIRRRGKNKVAAQNCRKRKLENIVELEQDLDHLKDEKEKLLKEKGENDKSLHLLKKQLSTLYLEVFSMLRDEDGKPYSPSEYSLQQTRDGNVFLVPKSKKPDVKKN
In the case of B3, the Reported Value (standard deviation of reduction in binding) in [9] came out at 7.2%. In addition, in test [10], the Standard Deviation (of binding percentage) turned out to be 7.2%.
